# Reference: PMC3258132 (Nucleic Acids Research, 2011)
# Where two headings read alike, the source gives them in different places.
# B1: d60_orf1 (ssDNA)
# DNA: GATCATGCAGGACAGTCGGATCGCAACCTGATTTACTGTGTCATATAGTACGTGATTCAG
# B2: human L1 ORF1 protein (ORF1p), full length, expressed in insect cells (natural protein)
# chain: GMGKKQNRKTGNSKTQSASPPPKERSSSPATEQSWMENDFDELREEGFRRSNYSELREDIQTKGKEVENFEKNLEECITRITNTEKCLKELMELKTKARELREECRSLRSRCDQLEERVSAMEDEMNEMKREGKFREKRIKRNEQSLQEIWDYVKRPNLRLIGVPESDVENGTKLENTLQDIIQENFPNLARQANVQIQEIQRTPQRYSSRRATPRHIIVRFTKVEMKEKMLRAAREKGRVTLKGKPIRLTADLSAETLQARREWGPIFNILKEKNFQPRISYPAKLSFISEGEIKYFIDKQMLRDFVTTRPALKELLKEALNMERNNRYQPLQNHAKM
# B3: d58_pT-b (ssDNA)
# DNA: GAGAGATTTTTTTTTTTTTTTTTTTTTTTTTTTTTTTTTTTTTTTTTTTTTCCAGAGC
# B4: d53_pT-b (ssDNA)
# DNA: GAGAGATTTTTTTTTTTTTTTTTTTTTTTTTTTTTTTTTTTTTTTTCCAGAGC
# B5: d60_c (ssDNA)
# DNA: AGCGAGTTGATGTTAGACTGTGTACTTTTTGCGAGTTGATGTTAGACTGTGTACTTTTTA
# B6: d120_c (ssDNA)
# DNA: AGCGAGTTGATGTTAGACTGTGTACTTTTTGCGAGTTGATGTTAGACTGTGTACTTTTTAAGCGAGTTGATGTTAGACTGTGTACTTTTTGCGAGTTGATGTTAGACTGTGTACTTTTTA
# B7: r60_U (ssRNA)
# RNA: UUUUUUUUUUUUUUUUUUUUUUUUUUUUUUUUUUUUUUUUUUUUUUUUUUUUUUUUUUUU
# B8: d29:d29_c perfect duplex (dsDNA)
# DNA 1: AAAAAGTACACAGTCTAACATCAACTCGC
# DNA 2: GCGAGTTGATGTTAGACTGTGTACTTTTT
# B9: M128p, N-terminal deletion mutant of human L1 ORF1p (residues 128-338) (domain or fragment)
# chain: GMKREGKFREKRIKRNEQSLQEIWDYVKRPNLRLIGVPESDVENGTKLENTLQDIIQENFPNLARQANVQIQEIQRTPQRYSSRRATPRHIIVRFTKVEMKEKMLRAAREKGRVTLKGKPIRLTADLSAETLQARREWGPIFNILKEKNFQPRISYPAKLSFISEGEIKYFIDKQMLRDFVTTRPALKELLKEALNMERNNRYQPLQNHAKM
# B10: d29_c (ssDNA)
# DNA: GCGAGTTGATGTTAGACTGTGTACTTTTT
# B11: d29:d29_cmm mismatched duplex (dsDNA)
# DNA 1: AAAAAGTACACAGTCTAACATCAACTCGC
# DNA 2: GCGAGTTGACGTCAGACCGTGCACTTTTT
# B12: r30_3'utr-a (ssRNA)
# RNA: ACCUGCACAAUGUGCACAUGAAAAAAAAAA
# Assays:
# L1 ORF1p [1] = biological target: T1, L1 ORF1p (Homo sapiens (L1.3, Ta-1 subfamily of …, UniProt Q9UN81)); experiment: EMSA
# AUC [2] = biological target: the molecule itself; experiment: AUC
# L1 ORF1p [3] = biological target: T1, L1 ORF1p; experiment: EMSA; remark: listed apart in the source
# L1 ORF1p [4] = biological target: T1, L1 ORF1p; experiment: filter binding
# L1 ORF1p [5] = biological target: T1, L1 ORF1p; experiment: EMSA; remark: listed apart in the source
# L1 ORF1p [6] = biological target: T1, L1 ORF1p; experiment: filter binding; remark: listed apart in the source
# AUC [7] = biological target: the molecule itself; experiment: AUC; remark: listed apart in the source
# AUC [8] = biological target: the molecule itself; experiment: AUC; remark: listed apart in the source
# L1 ORF1p [9] = biological target: T1, L1 ORF1p; experiment: filter binding; remark: listed apart in the source
# L1 ORF1p [10] = biological target: T1, L1 ORF1p; experiment: filter binding; remark: listed apart in the source
binder,measurement,setting,value
B1,binding result,L1 ORF1p [1],binds
B2,stoichiometry N,AUC [2],3
B3,binding result,L1 ORF1p [3],binds
B4,binding result,L1 ORF1p [1],binds
B5,apparent K (half saturation),L1 ORF1p [4],~1 nM
B6,binding result,L1 ORF1p [5],binds
B7,binding result,L1 ORF1p [1],binds
B8,binding signal,L1 ORF1p [6],~8 fold lower affinity than mismatched duplex N10
B9,Kd,AUC [7],~3.4 µM
same,stoichiometry N,AUC [7],3
same,Kd,AUC [8],~35 µM
B10,binding signal,L1 ORF1p [9],~1 fold of mismatched duplex affinity
B11,binding signal,L1 ORF1p [10],~1 fold of ssDNA d29_c affinity
B12,apparent K (half saturation),L1 ORF1p [4],~1 nM
